Reference: patent US20150259664
Residue numbers refer to the chain shown, from its start.

Assays:
[1] = target: Escherichia coli Release Factor 1 (RF1), wild type
[2] = target: RF1 variant A-13 (N296K/L297R)
[3] = target: T1, RF1 variant A-17 (N296K/L297R/L298K)
T1 chain: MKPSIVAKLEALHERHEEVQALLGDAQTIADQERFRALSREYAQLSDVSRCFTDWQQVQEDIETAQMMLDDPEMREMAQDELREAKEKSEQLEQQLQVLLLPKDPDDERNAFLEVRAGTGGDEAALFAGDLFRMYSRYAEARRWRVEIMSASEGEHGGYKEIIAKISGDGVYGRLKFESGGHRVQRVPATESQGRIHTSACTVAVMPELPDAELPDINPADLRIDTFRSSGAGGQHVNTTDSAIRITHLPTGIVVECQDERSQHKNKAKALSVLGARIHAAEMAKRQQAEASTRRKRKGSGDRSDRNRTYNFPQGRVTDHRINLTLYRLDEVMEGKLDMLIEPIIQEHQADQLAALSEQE

[4] = target: T2, RF1 variant A-18 (N296K/L297R/L298R)
T2 chain: T1 chain with K298R

B1: Escherichia coli Outer Membrane Protein T1 (OmpT1) (protein)
chain: STETLSFTPDNINADISLGTLSGKTKERVYLAEEGGRKVSQLDWKFNNAAIIKGAINWDLMPQISIGAAGWTTLGSRGGNMVDQDWMDSSNPGTWTDESRHPDTQLNYANEFDLNIKGWLLNEPNYRLGLMAGYQESRYSFTARGGSYIYSSEEGFRDDIGSFPNGERAIGYKQRFKMPYIGLTGSYRYEDFELGGTFKYSGWVESSDNDEHYDPGKRITYRSKVKDQNYYSVAVNAGYYVTPNAKVYVEGAWNRVTNKKGNTSLYDHNNNTSDYSKNGAGIENYNFITTAGLKYTF
[1]
  cleavage in lysed strain SBJY001, 0, 1, 2 and 3 hours (Western blot): cleavage of unmodified, wild-type RF1 by strain SBJY001 was not detected over the same time periods
[2]
  cleavage in lysed recombinant strain, 0, 1, 2 and 3 hours (Western blot): the modified RF1 protein variants were efficiently cleaved at all time points tested by the cell-free extract, as determined by Western blot analysis (data not shown)
[3]
  cleavage in lysed recombinant strain, 0, 1, 2 and 3 hours (Western blot): the modified RF1 protein variants were efficiently cleaved at all time points tested by the cell-free extract, as determined by Western blot analysis (data not shown)
[4]
  cleavage in lysed recombinant strain, 0, 1, 2 and 3 hours (Western blot): the modified RF1 protein variants were efficiently cleaved at all time points tested by the cell-free extract, as determined by Western blot analysis (data not shown)
